Experimental findings from paper doi:10.1101/2024.11.06.622200 are described below.

This assay deals with purified recombinant myristoylated HIV-1 matrix protein (myrMA) (HIV-1 NL4-3).

Regarding “HIV-1 spacer peptide 2 (SP2), added in vitro”, the share of sub-images contributing to mature-like MA lattice classes on lipid monolayers, with SP2 (7% mature-like and 7% immature-like without SP2) amounted to 47%.
